Test results taken from the nanobody polyreactivity screen of Harvey et al. (2022).

Assay: yeast display, Sf9 membrane polyspecificity reagent, FACS + sequencing; frameworks hold sequencing errors
Outline: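 After 36–48 hours of galactose induction, yeast (Saccharomyces cerevisiae BJ5465) displaying a synthetic nanobody library were stained at 4 °C for 1 hour with 10% biotinylated, detergent-solubilized Sf9 membrane reagent. Streptavidin microbeads enriched the stained cells before FACS sorting into low and high (top ~1%) gates on anti-HA and streptavidin fluorescence. Each clone's polyreactivity label reflects its gate of origin.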

For “QVQLVESGVGLVQAGGSLRLSCAASGIIFKVYAMGWYRQAPGKERELVAAISKSGGSTYYADSVKGRFTISRDNAKNTVYLQMNSLKPEDTAVYYCAARDYARYASYYYWGLGTQVTVSS”, which “polyreactivity (PSR sort gate)” value is on record?
The value was “high polyreactivity”.

For “QVQLVESGVGLVQAGGSLRLSCAASGIIFYDNALGWYRQAPGKERELVAAITDSGGTTYYADSVKGRFTISRDNAKNTVYLEMNSLKPEDNAVYYCAAETTATHGFAYDYWGQGTQVTVSS”, which “polyreactivity (PSR sort gate)” value is on record?
Its value is “low polyreactivity”.

For “QVQLVESGVGLVQAGGSLRLSCAASGIIFYEYAMGWNRQAPWKERELVATITSGGSTNYADSVKGRFTISRDNAKNTVYLQMNSLKPEDTAVYYCNADWWWGYGYWGQGTQVTVSS”, which “polyreactivity (PSR sort gate)” value is on record?
The value was “low polyreactivity”.

Which “polyreactivity (PSR sort gate)” value does the source give for “QVQLVESGVGLVQAGGSLRLSCAASGITFSYYAMGWYRQAPGKERELVAAISGSGTSTYYADSVKGRFTISRDNAKNTVYLQMNSLKPEDTAVYYCAAGPPRKPGYYYWGQGTQVTVSS” here?
Its value is “high polyreactivity”.

Which “polyreactivity (PSR sort gate)” value does the source give for “QVQLVESGVGLVQAGGSLRLSCAASGITFTGYAMGWYRQAPGKERELVAVISETGGSTYADSVKGRFTISRDNAKNTVYLQMNSLKPEDTAVYYCATRLWWPYSTAWAKMDYWGQGTQVTVSS” here?
The value was “low polyreactivity”.

For “QVQLVESGVGLVQAGGSLRLSCAASGNIFWWNAMGWYRQAPGKERELVAAITSDSTTYYADSVKGRFTISRDNAKKTVYFQMNSLKPEDTAVYYCAAYSYGGQGVDYGYWGQGTQVNVSS”, which “polyreactivity (PSR sort gate)” value is on record?
Its value is “low polyreactivity”.

With “QVQLVESGVGLVQAGGSLRLSCAASGNIITTYAMGWYRQAPGKERELVAAISRTGGRTSYADSVKGRFTISRDNAKNTVYLQMNSLKPEDTAVYYCAAVQTVRQSAPRARILSDYWGQGTQVTVSS” as the sequence, how does the “polyreactivity (PSR sort gate)” value read?
Its value is “high polyreactivity”.

For “QVQLVESGVGLVQAGGSLRLSCAASGNILGYNAIGWYRQAPGKETELVAAISWIGGSTYYADSVKGRFTISRDNAKNTVYLQMNSLKPEDTAVYYCAARYRTYFTYEYWGQGTQVTVSS”, which “polyreactivity (PSR sort gate)” value is on record?
Its value is “low polyreactivity”.

For “QVQLVESGVGLVQAGGSLRLSCAASGRIFHINAMGWYRQAPGKERELVATISGTDRTTYADSVKGRFTISRDNAKNTVYLQMNSLKPEDTAVYYCAAPTDFLFWEFDYWGQGTQVTVSS”, which “polyreactivity (PSR sort gate)” value is on record?
Its value is “low polyreactivity”.

For “QVQLVESGVGLVQAGGSLRLSCAASGRIFIKYAMGWYRQAPGKEREFVAAISGRGGSTYYADSVKGRFTISRDNAKNTVYLQMNSLKPEDTAVYYCAKRFFSSGTAAGMYYWGQGTQVTVSS”, which “polyreactivity (PSR sort gate)” value is on record?
The value was “high polyreactivity”.

Which “polyreactivity (PSR sort gate)” value does the source give for “QVQLVESGVGLVQAGGSLRLSCAASGRIFRTYAMGWYRQAPGKERELVAAITSGGGSTYYADSVKGRFTISRDNAKNTVYLQMNSLKPEDTAVYYCAARPGIRSYPPGYGYWGQGTQVTVSS” here?
Its value is “high polyreactivity”.

With “QVQLVESGVGLVQAGGSLRLSCAASGRIFRWYPMGWYRQAPGKERELVASITWNGGSTYYADSVKGRFTISRDNAKNTVYLQMKSLKPEDTAVYYCAVPFYRGPEMGYWGQGTQVTVSS” as the sequence, how does the “polyreactivity (PSR sort gate)” value read?
The value was “high polyreactivity”.

With “QVQLVESGVGLVQAGGSLRLSCAASGRIFTPYAMGWYRQAPGKERELVAAITGSGGITYYADSVKGRFTISRDNSKNTVYLQMNSLKPEDTAVYYCNADTPVWDGHAYPGDYWGQGTQVTVSS” as the sequence, how does the “polyreactivity (PSR sort gate)” value read?
The value was “low polyreactivity”.

Which “polyreactivity (PSR sort gate)” value does the source give for “QVQLVESGVGLVQAGGSLRLSCAASGRNFGTNAIGWYRPAPGKERELVAAISSSGGSTYYADSVKGRFTISRDNAKNTVYLQMNSLKPEDTAVYYCAKGWHRGVGFGYWGQGTEVTVSS” here?
The value was “high polyreactivity”.

With “QVQLVESGVGLVQAGGSLRLSCAASGRTIPIYAMGWYRQAPGKERELVASITRSGGSTYYADSVKGRFTISRDNAKYTVYLQMNSLKPEDTAVYYCAAAANSYSVYSGKFYYWGQGTQVTVSS” as the sequence, how does the “polyreactivity (PSR sort gate)” value read?
Its value is “high polyreactivity”.

With “QVQLVESGVGLVQAGGSLRLSCAASGRTLGVYTMGWYRQAPGKERELVAAITTGGSTKYADSVKGRFTISRDNAKNTVYLQMNSLKPEDTAVYYCATDLVFDKRYWYDYWGQGTQVTVSS” as the sequence, how does the “polyreactivity (PSR sort gate)” value read?
Its value is “low polyreactivity”.

Which “polyreactivity (PSR sort gate)” value does the source give for “QVQLVESGVGLVQAGGSLRLSCAASGSIFESYAMGWYRQAPGKVRELVADITYDGGITYYADSVKGRFTISRDNAKNTVYLQMNSLKPEDTAVYYCAKQYYFTFWGQGTQVTVSS” here?
The value was “low polyreactivity”.

With “QVQLVESGVGLVQAGGSLRLSCAASGSIFGYNDMGWYRQAPGKERELVAVITSGGSTNYADSVKGRFTISRDNAKNTVYLQMNSLKPEDTAVYYCNAEGVFGDGRSGFYWYDYWGQGTQVTVSS” as the sequence, how does the “polyreactivity (PSR sort gate)” value read?
The value was “low polyreactivity”.

For “QVQLVESGVGLVQAGGSLRLSCAASGSIFLHNAMGWYRQAPGKERELVAGITGSGGSTYYADSVKGRFTISRDNAKNTVYLQMNSLKPEDTAVYYCAAERYGYERYYWGQGTQVTVSS”, which “polyreactivity (PSR sort gate)” value is on record?
Its value is “high polyreactivity”.

Which “polyreactivity (PSR sort gate)” value does the source give for “QVQLVESGVGLVQAGGSLRLSCAASGSIFPPYAMGWYRQAPGKERELVAAITSGGRTNYADSVKGRFTISRDNAKNTVYLQMNSLKPEDTEVYYCAQTGSYAKIRPNNDYWGQGTQVTVSS” here?
The value was “low polyreactivity”.

Which “polyreactivity (PSR sort gate)” value does the source give for “QVQLVESGVGLVQAGGSLRLSCAASGSIFYPYAMGWYRQAPGKERELVAAISSGGRTYDADSVKGRFTISRDNAKNTVYLQMNSLKPEDTAVSYCAARPKAYGRPPGYYWGQGTQVTVSS” here?
The value was “high polyreactivity”.

With “QVQLVESGVGLVQAGGSLRLSCAASGSIFYQNAMGWYRQAPGKEREFVAAITWIGGSTYYADSVKGRFTISRDNAKNTVYLQMNSLKPEDTAVYYCARRLLRGSDWGQGTQVTVSS” as the sequence, how does the “polyreactivity (PSR sort gate)” value read?
The value was “high polyreactivity”.

For “QVQLVESGVGLVQAGGSLRLSCAASGSTFDANAMGWYIQAPGKERELVAAITSNGGSTYYADSVKGRFTISRDNAKNTVYLQMNSLKPEDTAVYYCASEQHTVQDYDYWGQGTQVTVSS”, which “polyreactivity (PSR sort gate)” value is on record?
Its value is “low polyreactivity”.

With “QVQLVESGVGLVQAGGSLRLSCAASGSTFGGNAMGWYRQAPGKEREKVADITFSGGSTSYADSVKGRFTISRDNAKKTVYLQMNSLKPEDTAVYYCNRDYPEIIVAGLDYWGQGSQVTVSS” as the sequence, how does the “polyreactivity (PSR sort gate)” value read?
The value was “low polyreactivity”.

For “QVQLVESGVGLVQAGGSLRLSCAASGSTFPKNVMGWYRQAPGKERELVAAINYSGTSTYYADSVKGRFTISRDNAKNTVYLQMNSLKPEDTAVYYCAARFPLVRYNYWGQGTQVTVSS”, which “polyreactivity (PSR sort gate)” value is on record?
Its value is “high polyreactivity”.

Which “polyreactivity (PSR sort gate)” value does the source give for “QVQLVESGVGLVQAGGSLRLSCAASGSTFQPYSMGRYRQAPGKERELVAAIRSLAGSTYYADSVKGRFTISRDNAKNTVYLQMNSLKPEDTAVYYCAAGYNPYVGLGWYPIYDFWGQGTQVTVSS” here?
The value was “low polyreactivity”.

For “QVQLVESGVGLVQAGGSLRLSCAASGSTFSAYTMGWYRQAPGKERELVAAIRFDGGRTYYADSVKGRFTISRDNAKNTVYLQMNSLKPEDTAVYYCRAWQSYSYDYSGQGTQVTVSS”, which “polyreactivity (PSR sort gate)” value is on record?
The value was “high polyreactivity”.

For “QVQLVESGVGLVQAGGSLRLSCAASGSTFSNNAMGWYIQAPGKERELVAVITGDGGSTYYADSVKGRFTISRDIAKNTVYLQTNSLKPEDTAVYSCNARSSRYSRFRQRFGYWGQVTQVTVSS”, which “polyreactivity (PSR sort gate)” value is on record?
Its value is “low polyreactivity”.

With “QVQLVESGVGLVQAGGSLRLSCAASGVTFYQYAMGWYRQAPGKERELVAAITRRGGSTSYADSVKGRFTISRDNAKNHVFLKMTRLIPEDTSVYYCNALYGSAFATQVESDYWGQGTQVNVSS” as the sequence, how does the “polyreactivity (PSR sort gate)” value read?
The value was “high polyreactivity”.

Which “polyreactivity (PSR sort gate)” value does the source give for “QVQLVESGVGLVQAGGSLRLSCAAYGRTFYYYAMGWYRQAPGKERELVAGITWSGGSTKYADSVKGRFTISRDNAKNTVYLQMNSLKPEDTAVYYCNARPPRWVRSMDYWGQGTQVTVSS” here?
Its value is “high polyreactivity”.

Which “polyreactivity (PSR sort gate)” value does the source give for “QVQLVESGVGLVQAGGSLRLSCADSGFTFFHYARGWYIQAPGKERELVAAIDYSAGSTYYADSVKGRFTISRDNAKNTVYLQMNSLKPEDTAVYYCAADARTSRGRRYYYWGQGTQVTVSS” here?
The value was “low polyreactivity”.

For “QVQLVESGVGLVQAGGSLRLSCAPSGRTFFWYAMGWYRPAPGKERELVAAIRGAGRTNYADSVKGRFTISRDNAKYTVYLHMNSLKPEDTAVYYCAAQHYPWRRYDYWGLGTQVTVSS”, which “polyreactivity (PSR sort gate)” value is on record?
Its value is “high polyreactivity”.

With “QVQLVESGVGLVQAGGSLRLSCASSGRIFDLNSMGWYIQAPGKERELVAVIDRDGSTYYADSVKGRFTISRDNAKNTVYLQMNSLKPDDTAVYYCNKYWYSRHVRYWAYYAEQRYDYCGQGTQVTVSS” as the sequence, how does the “polyreactivity (PSR sort gate)” value read?
The value was “low polyreactivity”.

With “QVQLVESGVGLVQAGGSLRLSCASSGSIFTPYAMGCYRQAPGKESELVAAISRSGGSTYYADSVKGRFTISRDNAKNTVFLQMNRLKPEDTAVYYCAVVVYDIYGYESDYWGEGTQVTVSS” as the sequence, how does the “polyreactivity (PSR sort gate)” value read?
Its value is “low polyreactivity”.

For “QVQLVESGVGLVQAGGSLRLSSAASGSTFGYYTMGWYRQAPGKERELVASISWSGASTHYADSVKGRFTISRDNAKNTVYLQMNSLKPDDTEVYYCAADWQQQPGTNSFDYWGQGTQVTVSS”, which “polyreactivity (PSR sort gate)” value is on record?
The value was “low polyreactivity”.

For “QVQLVESGVGLVQAGGSLRLSWTASGRIFSWYAMGWYRQAPGKERELVADISWGTGSTYYADTVKGRFTISRDNAKHTVDLQMNSLKPEDTAVYYCAADPGYYYEYRRFYYWGQGTQVTVSS”, which “polyreactivity (PSR sort gate)” value is on record?
Its value is “high polyreactivity”.

For “QVQLVESGVGLVQAGGSLRLTCAASGRIFVTNAKGWYRQAPGKERELVAAITRGVNTNYADSVKGRFTISRDNAKNTVYLQMNSLKPEDTAVYYCAADSSYYYVYGYFPGYYYWGQGTQVTVSS”, which “polyreactivity (PSR sort gate)” value is on record?
Its value is “low polyreactivity”.

With “QVQLVESGVGLVQAGGSLRVSCAASGRTFRYYAMGWYREAPGKERELVAAISSGTRTNYADSVTGRFTISRDNAKNTVYLQMNSLKPEDTAVYYCNAVTRRSAQGGHDYWGQGTQVTVSS” as the sequence, how does the “polyreactivity (PSR sort gate)” value read?
Its value is “high polyreactivity”.

For “QVQLVESGVGLVQAGGSLSLSCAASGRTFYVNAMGWYRQAPGKERELVARITSGGSTYYGDSVKGRFTISRDNAKNTVYLQMNSLKPEDTAVYYCAKKYIGYQEGIHSTRRYDYWGQGTQVTVSS”, which “polyreactivity (PSR sort gate)” value is on record?
Its value is “low polyreactivity”.

Which “polyreactivity (PSR sort gate)” value does the source give for “QVQLVESGVGLVQAGGSLSLSCAASGSTFYKYTMGWYRQAPGKESELVAAISGSGTTTYYADSVKGRFTISRDYAKNTVFLQINSLKPEDTAVYYCAAETYSPDREYGYWGLGTQVTVSS” here?
Its value is “high polyreactivity”.

For “QVQLVESGVGLVQAGGSLSLSSAASGSIFGYYAMGWYRQAPGKERELVAAITSDGDTYYADSVKGRFTISRDNAKNTVYLQINSLKPEDTAVYYCNATYGGPYYIQNDYWGQGTQVTVSS”, which “polyreactivity (PSR sort gate)” value is on record?
The value was “low polyreactivity”.
